# Source: doi:10.1101/2021.12.21.473685 (bioRxiv, 2021)
# B1: ZnF3-BRCT-WGR of PARP1 (domain or fragment)
# chain: VDEVAKKKSKKEKDKDSKLEKALKAQNDLIWNIKDELKKVCSTNDLKELLIFNKQQVPSGESAILDRVADGMVFGALLPCEECSGQLVFKSDAYYCTGDVTAWTKCMVKTQTPNRKEWVTPKEFREISYLKKLKVKKQDRIFPPETSASVAATPPPSTASAPAAVNSSASADKPLSNMKILTLGKLSRNKDEVKAMIEKLGGKLTGTANKASLCISTKKEVEKMNKKMEEVKEANIRVVSEDFLQDVSASTKSLQELFLAHILSPWGAEVKAEPVEVVAPRGKSGAALSKKSKGQVKEEGINKSEKRMKLTLKGGAAVDPDSGLEHSAHVLEKGGKVFSATLGLVDIVKGTNSYYKLQLLEDDKENRYWIFRSWGRVGTVIGSNKLEQMPSKEDAIEHFMKLYEEKTGNAWHSKNFTKYPKKFYPLEIDYGQDEEAVKKLTVNPGT
# B2: DSB DNA (5-FAM labelled) (dsDNA)
# DNA 1: GCCTACCGGTTCGAATGGCAGC
# DNA 2: GCTGCCATTCGAACCGGTAGGC
# Experiments:
# PARylated PARP2 = PARylated PARP2 (human, UniProt Q9UGN5-2 1-570, poly(ADP-ribose) chains added by in vitro automodification; modified residues not stated); experiment: ITC
# ZnF(1-2-3)-BRCT PARP1 = ZnF(1-2-3)-BRCT PARP1 (Homo sapiens, UniProt P09874 1-494); experiment: fluorescence polarization
# Chain of ZnF(1-2-3)-BRCT PARP1 (P09874 1-494): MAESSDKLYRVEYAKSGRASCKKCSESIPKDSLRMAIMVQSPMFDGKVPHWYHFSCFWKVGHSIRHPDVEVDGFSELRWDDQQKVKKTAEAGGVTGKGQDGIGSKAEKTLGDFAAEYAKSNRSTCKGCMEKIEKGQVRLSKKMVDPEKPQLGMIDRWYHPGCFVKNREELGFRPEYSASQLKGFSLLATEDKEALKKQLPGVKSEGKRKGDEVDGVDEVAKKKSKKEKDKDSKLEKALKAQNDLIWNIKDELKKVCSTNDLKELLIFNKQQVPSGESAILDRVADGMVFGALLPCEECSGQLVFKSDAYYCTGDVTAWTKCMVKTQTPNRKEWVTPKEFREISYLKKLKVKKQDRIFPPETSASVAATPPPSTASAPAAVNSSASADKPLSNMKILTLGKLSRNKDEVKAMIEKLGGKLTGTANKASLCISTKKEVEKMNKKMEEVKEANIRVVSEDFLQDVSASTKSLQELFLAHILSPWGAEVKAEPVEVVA
# PARP1 full length = PARP1 full length (Homo sapiens, UniProt P09874 1-1014); experiment: fluorescence polarization
# Chain of PARP1 full length (P09874 whole entry): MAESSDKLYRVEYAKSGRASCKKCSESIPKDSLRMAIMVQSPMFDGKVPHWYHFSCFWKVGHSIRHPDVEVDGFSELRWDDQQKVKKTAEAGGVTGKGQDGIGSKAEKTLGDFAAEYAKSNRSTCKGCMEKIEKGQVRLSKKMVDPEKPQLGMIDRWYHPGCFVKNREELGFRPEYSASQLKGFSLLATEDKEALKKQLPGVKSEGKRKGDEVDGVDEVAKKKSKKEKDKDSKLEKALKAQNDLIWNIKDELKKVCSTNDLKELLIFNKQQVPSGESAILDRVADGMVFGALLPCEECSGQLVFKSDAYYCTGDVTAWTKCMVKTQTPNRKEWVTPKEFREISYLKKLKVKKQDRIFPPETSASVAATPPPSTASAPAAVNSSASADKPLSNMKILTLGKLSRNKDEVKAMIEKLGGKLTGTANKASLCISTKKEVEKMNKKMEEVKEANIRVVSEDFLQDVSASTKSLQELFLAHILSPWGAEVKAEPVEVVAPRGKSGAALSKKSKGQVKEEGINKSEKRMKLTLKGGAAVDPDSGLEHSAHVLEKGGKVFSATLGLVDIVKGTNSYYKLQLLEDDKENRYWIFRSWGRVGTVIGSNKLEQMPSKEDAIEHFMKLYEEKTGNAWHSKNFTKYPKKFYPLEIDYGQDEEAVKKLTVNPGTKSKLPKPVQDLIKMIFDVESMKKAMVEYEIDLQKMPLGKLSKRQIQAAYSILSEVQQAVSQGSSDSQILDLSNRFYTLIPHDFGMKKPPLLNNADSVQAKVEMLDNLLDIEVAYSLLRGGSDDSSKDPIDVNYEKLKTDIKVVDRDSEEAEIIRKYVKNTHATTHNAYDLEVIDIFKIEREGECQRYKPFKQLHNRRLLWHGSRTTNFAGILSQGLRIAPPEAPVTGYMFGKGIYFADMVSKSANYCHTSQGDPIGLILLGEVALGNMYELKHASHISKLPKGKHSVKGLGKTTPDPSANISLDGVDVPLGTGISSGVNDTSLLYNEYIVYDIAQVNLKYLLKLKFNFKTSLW
Molecule,Kd (PARylated PARP2) [nM],Kd (ZnF(1-2-3)-BRCT PARP1) [nM],Kd (PARP1 full length) [nM]
ZnF3 domain of PARP1 (domain or fragment),2000,–,–
BRCT domain of PARP1 (from UniProt P09874 385-476) (domain or fragment),2000,–,–
WGR domain of PARP1 (domain or fragment),3000,–,–
B1,40,–,–
B2,–,~88,~15
"GCTGGCTTCGTAAGAAGCCAGCTCGCGGTCAGCTTGCTGACCGCG (structured_DNA, 5'-phosphate (printed for unlabelled oligo)) [SSB DNA dumbbell 45-mer (5-FAM labelled)]",–,~70,~64
